1 molecule from patent US20020106724A1 (RIKEN, published 2002) can be followed below.

For this test, the target named is T1, GST alone (UniProt P08515 1-218 = GST).
T1 construct: Control protein in the pull-downs; also called purified GST; glutathione-S-transferase
In words: pull-down of purified His6-tagged fragment with GST fusions, Western blot with anti-Xpress antibody. As for the experimental part: A His₆-tagged recombinant protein comprising a C-terminal region of SYNCRIP (amino acids 401-561) was expressed in E. coli using pREST plasmid (Invitrogen). The recombinant protein was recovered from inclusion bodies by using a denaturing solution (6 M guanidine-HCl, 10 mM Tris-HCl (pH 8.0), 0.5 M NaCl, 1 mM β-mercapto-ethanol) and purified with ProBond resin. The denatured recombinant protein was refolded by dialysis against 10 mM Tris-HCl (pH 8.0), 10 mM β-mercaptoethanol, 0.1 M NaCl and 1 mM EDTA, with gradual decrease of urea concentration from 6 M to 0.001 M. The dialysate was centrifuged at 12,000 rpm at 4° C. for 20 min to remove the malfolded part and insoluble matter. After aliquots were incubated with various GST-fusion proteins with one of the Syt-II C2 domains, bound proteins were recovered and subjected to Western blotting using anti-Xpress antibody (Invitrogen).
On the technique in general: In western blotting, separated proteins are transferred to a membrane and probed.

T1 sequence (P08515 whole entry): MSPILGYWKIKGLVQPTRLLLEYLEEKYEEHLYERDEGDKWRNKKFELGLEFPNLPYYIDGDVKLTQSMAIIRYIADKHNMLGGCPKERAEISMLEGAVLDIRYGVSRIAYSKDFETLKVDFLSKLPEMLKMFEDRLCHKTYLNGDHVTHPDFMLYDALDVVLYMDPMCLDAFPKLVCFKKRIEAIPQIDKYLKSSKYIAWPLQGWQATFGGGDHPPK

B1: His6-tagged recombinant protein comprising a C-terminal region of SYNCRIP (amino acids 401-561) (other, not shown: small tags and cut ends)
chain: IEIVFAKPPDQKRKERKAQRQAAKNQMYDDYYYYGPPHMPPPTRGRGRGGRGGYGYPPDYYGYEDYYDYYGYDYHNYRGGYEDPYYGYEDFQVGARGRGGRGARGAAPSRGRGAAPPRGRAGYSQRGGPGSARGVRGARGGAQQQRGRGGKGVEAGPDLLQ
notes: also called C-terminal region of SYBCRIP
Regarding B1, the binding result is “no binding”.
